These substances were tested against T1, FBXO44^FBA (Homo sapiens, UniProt Q9H4M3) (assay: Peptide microarray (PEPperPRINT), FLAG-FBXO44^FBA binding). Settings: Table S1; RGS2^5–16 single-residue substitution; 2 μg/ml FBXO44^FBA overnight at 4 °C, PBS 0.005% Tween pH 7.4, anti-FLAG DyLight800 fluorescence; three independent experiments with three technical replicates each.
T1 construct: we expressed and purified only this domain for all in vitro studies; 6xHis (N, cleaved yes); MBP (N, cleaved yes); made in house; host or cells: Escherichia coli Rosetta BL21 (λDE3)
T1 sequence (Q9H4M3 71-252 limits assumed): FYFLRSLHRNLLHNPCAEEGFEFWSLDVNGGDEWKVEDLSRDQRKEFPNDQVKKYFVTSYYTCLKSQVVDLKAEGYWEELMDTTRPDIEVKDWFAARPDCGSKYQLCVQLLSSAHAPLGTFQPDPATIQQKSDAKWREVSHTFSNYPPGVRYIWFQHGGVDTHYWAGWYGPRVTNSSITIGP
Text: To do so, we utilized a custom peptide microarray (PEPperPRINT GmbH). The design of this array was twofold: (1) substitution at each position with every other natural eukaryotic amino acid; (2) truncation of the peptide from the C terminus. We assessed the binding of FLAG-FBXO44^FBA to the array utilizing fluorescence immunoreactivity corresponding to the amount of FLAG-FBXO44^FBA bound. […] Substitutions at Asp^12 were not only tolerated but also seemed to improve binding in every case (Fig. 3B). This, combined with the fact that substituting any residue in His^11–Met^16 with Arg, and in most cases with Lys, improved FBXO44^FBA binding, indicating the presence of negative charges at the binding interface.
Figure 2 Systematic mutation of the RGS2 degron alters FBXO44^FBA binding. A custom microarray (PEPperPRINT) was designed where each position of the RGS2^5–16 peptide was substituted for each natural amino acid. We also included truncated peptides on the array. This was incubated with purified FBXO44^FBA and probed with α-FLAG. A, a representative scan of a peptide microarray (top) and a truncated peptide (bottom). B, heatmap of mean fluorescence of quantified microarray scans. The scale represents the mean fluorescence in percentage points across all replicates, normalized to the signal obtained with the original residue at each position. C, heatmap of standard deviation of quantified microarray scans. The scale represents the standard deviation in percentage points across all replicates. […] Residues are color-coded based on properties: blue, positive charge; red, negative charge; orange, uncharged polar; green, hydrophobic; yellow, Cys (C); bright green, Pro (P); and black, Gly (G). […] Results of three independent experiments with three technical replicates each. For a statistical significance summary, see Table S1. FBXO44, F-box only protein 44; RGS2, regulator of G protein signaling 2.
Figure 3 Effects of RGS2^5–16 peptide residue changes on FBXO44^FBA binding. Data are presented as % FLAG immunoreactivity, as compared with the parent peptide residue. […] The original residue is marked in each graph with a vertical dotted line. Boxes extend from the 25th to 75th percentile with a line marking the median. Whiskers extend to the minimum and maximum. Results of three independent experiments with three technical replicates each. Data were analyzed by two-way ANOVA, with Tukey's post hoc test for pairwise comparison (simple effect within columns). Statistical significance is summarized in Table S1 and color-coded according to the legend. FBXO44, F-box only protein 44; RGS2, regulator of G protein signaling 2.
The microarray slide was seated into the incubation tray according to PEPperPRINT's instructions. The array well was then incubated in washing buffer (PBS) with 0.005% Tween (Sigma; P1379, pH 7.4) at room temperature for 15 min on an orbital shaker. Washing buffer was aspirated, and the array was then incubated with Rockland blocking buffer at room temperature for 30 min on an orbital shaker. Blocking buffer was then aspirated, and the array was incubated in staining buffer (washing buffer with 10% Rockland blocking buffer) at room temperature for 15 min on an orbital shaker. Staining buffer was aspirated, and purified FBXO44 FBA domain diluted to 2 μg/ml in staining buffer was added. The array was then placed on an orbital shaker overnight at 4 °C. The FBA domain solution was removed, and an array was washed three times with washing buffer. After the third array was incubated in staining buffer for 15 min at 4 °C on an orbital shaker. The array was then incubated with antibody dilution (anti-FLAG DyLight800 and anti-HA DyLight680, both diluted 1:2000 in staining buffer) for 45 min at 4° C on an orbital shaker. The array was then washed three times with washing buffer. […]

| Substance | Mean % difference from parent peptide (FLAG immunoreactivity) |
| --- | --- |
| D12G: array RGS2^5–16 peptide, D12 substituted by G (MFLAVQHGCRPM; UniProt P41220 5-16, looked up, variant D12G) | 28.74% |
| C13Q: array RGS2^5–16 peptide, C13 substituted by Q (MFLAVQHDQRPM; UniProt P41220 5-16, looked up, variant C13Q) | -77.02% |
| D12P: array RGS2^5–16 peptide, D12 substituted by P (MFLAVQHPCRPM; UniProt P41220 5-16, looked up, variant D12P) | 66.54% |
| C13V: array RGS2^5–16 peptide, C13 substituted by V (MFLAVQHDVRPM; UniProt P41220 5-16, looked up, variant C13V) | -88.12% |
| D12V: array RGS2^5–16 peptide, D12 substituted by V (MFLAVQHVCRPM; UniProt P41220 5-16, looked up, variant D12V) | 40.66% |
| D12T: array RGS2^5–16 peptide, D12 substituted by T (MFLAVQHTCRPM; UniProt P41220 5-16, looked up, variant D12T) | 32.23% |
| P15A: array RGS2^5–16 peptide, P15 substituted by A | -27.06% |
| C13K: array RGS2^5–16 peptide, C13 substituted by K (MFLAVQHDKRPM; UniProt P41220 5-16, looked up, variant C13K) | -53.92% |
| D12L: array RGS2^5–16 peptide, D12 substituted by L (MFLAVQHLCRPM; UniProt P41220 5-16, looked up, variant D12L) | 31.38% |
| C13G: array RGS2^5–16 peptide, C13 substituted by G (MFLAVQHDGRPM; UniProt P41220 5-16, looked up, variant C13G) | -89.67% |
| M16K: array RGS2^5–16 peptide, M16 substituted by K (MFLAVQHDCRPK; UniProt P41220 5-16, looked up, variant M16K) | 38.94% |
| C13W: array RGS2^5–16 peptide, C13 substituted by W (MFLAVQHDWRPM; UniProt P41220 5-16, looked up, variant C13W) | -46.69% |
| C13R: array RGS2^5–16 peptide, C13 substituted by R (MFLAVQHDRRPM; UniProt P41220 5-16, looked up, variant C13R) | 35.61% |
| H11R: array RGS2^5–16 peptide, H11 substituted by R (MFLAVQRDCRPM) | 41.19% |
| D12S: array RGS2^5–16 peptide, D12 substituted by S (MFLAVQHSCRPM; UniProt P41220 5-16, looked up, variant D12S) | 59.59% |
| A8R: array RGS2^5–16 peptide, A8 substituted by R (MFLRVQHDCRPM; UniProt P41220 5-16, looked up, variant A8R) | 27.84% |
| C13D: array RGS2^5–16 peptide, C13 substituted by D (MFLAVQHDDRPM; UniProt P41220 5-16, looked up, variant C13D) | -75.39% |
| D12Q: array RGS2^5–16 peptide, D12 substituted by Q (MFLAVQHQCRPM; UniProt P41220 5-16, looked up, variant D12Q) | 59.62% |

Other lines, results leading:

| Mean % difference from parent peptide (FLAG immunoreactivity) | Substance |
| --- | --- |
| -87.12% | C13E: array RGS2^5–16 peptide, C13 substituted by E (MFLAVQHDERPM; UniProt P41220 5-16, looked up, variant C13E) |
| -88.01% | C13M: array RGS2^5–16 peptide, C13 substituted by M (MFLAVQHDMRPM; UniProt P41220 5-16, looked up, variant C13M) |
| 31.74% | P15D: array RGS2^5–16 peptide, P15 substituted by D (MFLAVQHDCRDM; UniProt P41220 5-16, looked up, variant P15D) |
| -85.38% | C13N: array RGS2^5–16 peptide, C13 substituted by N (MFLAVQHDNRPM; UniProt P41220 5-16, looked up, variant C13N) |
| 31.8% | D12Y: array RGS2^5–16 peptide, D12 substituted by Y (MFLAVQHYCRPM; UniProt P41220 5-16, looked up, variant D12Y) |
| -27.71% | R14A: array RGS2^5–16 peptide, R14 substituted by A (MFLAVQHDCAPM) |
| -27.86% | M16G: array RGS2^5–16 peptide, M16 substituted by G (MFLAVQHDCRPG; UniProt P41220 5-16, looked up, variant M16G) |
| -72.59% | C13A: array RGS2^5–16 peptide, C13 substituted by A (MFLAVQHDARPM; UniProt P41220 5-16, looked up, variant C13A) |
| -42.98% | C13Y: array RGS2^5–16 peptide, C13 substituted by Y (MFLAVQHDYRPM; UniProt P41220 5-16, looked up, variant C13Y) |
| 42.93% | D12I: array RGS2^5–16 peptide, D12 substituted by I (MFLAVQHICRPM; UniProt P41220 5-16, looked up, variant D12I) |
| 31.28% | M16D: array RGS2^5–16 peptide, M16 substituted by D (MFLAVQHDCRPD; UniProt P41220 5-16, looked up, variant M16D) |
| 101.4% | M16R: array RGS2^5–16 peptide, M16 substituted by R (MFLAVQHDCRPR; UniProt P41220 5-16, looked up, variant M16R) |
| 37.64% | D12H: array RGS2^5–16 peptide, D12 substituted by H (MFLAVQHHCRPM; UniProt P41220 5-16, looked up, variant D12H) |
| 52.32% | P15K: array RGS2^5–16 peptide, P15 substituted by K (MFLAVQHDCRKM; UniProt P41220 5-16, looked up, variant P15K) |

Same assay, conditions: versus parent RGS2^5–16 peptide; 2 μg/ml FBXO44^FBA overnight at 4 °C; fluorescence

| Substance | FBXO44^FBA binding in peptide microarray (in words) |
| --- | --- |
| H11R: array RGS2^5–16 peptide, H11 substituted by R (MFLAVQRDCRPM) | modest effects, with only one or two substitutions for each reaching significance |
| R14A: array RGS2^5–16 peptide, R14 substituted by A (MFLAVQHDCAPM) | modest effects, with only one or two substitutions for each reaching significance |
